Columns and labels:
FAAAWPDDDF1 = target: T1, FAAAWPDDDF1
T1 chain: FAAAWPDDDF

FAAAYPDDDF1 = target: T2, FAAAYPDDDF1
T2 chain: FAAAYPDDDF

FYPLPWPDDDY{LYSN3}NH2 = target: T3, FYPLPWPDDDY{LYSN3}NH2
T3 chain: FYPLPWPDDDYX

WAAAFPDDDF1 = target: T4, WAAAFPDDDF1
T4 chain: WAAAFPDDDF

[1] = target: T5, FFMFFM{LYS(N3)} peptide-linker conjugate, oligo linker (Table 6 entry 6)
T5 chain: FFMFFMX

[2] = target: KF peptide-linker conjugate, oligo linker (Table 6 entry 1)
[3] = target: T6, KKMKKM{LYS(N3)} peptide-linker conjugate, PEG4 linker (Table 6 entry 4)
T6 chain: KKMKKMX

[4] = target: T7, KKMKKM{LYS(N3)} peptide-linker conjugate, oligo linker (Table 6 entry 2)
T7 chain: KKMKKMX

[5] = target: T8, KKMKKM{LYS(N3)} peptide-linker conjugate, oligo-PEG linker (Table 6 entry 3)
T8 chain: KKMKKMX

[6] = target: […]{LYS(N3)} peptide-linker conjugate, oligo linker (Table 6 entry 5)
[7] = target: […]{LYS(N3)} peptide-linker conjugate, oligo linker (Table 6 entry 7)

B1: Vibrio proteolyticus aminopeptidase (protein)
chain: MPPITQQATVTAWLPQVDASQITGTISSLESFTNRFYTTTSGAQASDWIASEWQALSASLPNASVKQVSHSGYNQKSVVMTITGSEAPDEWIVIGGHLDSTIGSHTNEQSVAPGADDDASGIAAVTEVIRVLSENNFQPKRSIAFMAYAAEEVGLRGSQDLANQYKSEGKNVVSALQLDMTNYKGSAQDVVFITDYTDSNFTQYLTQLMDEYLPSLTYGFDTCGYACSDHASWHNAGYPAAMPFESKFNDYNPRIHTTQDTLANSDPTGSHAKKFTQLGLAYAIEMGSATGDTPTPGNQ
HPLC Assay Conv; 600 uM Peptide, 8 uM enzyme, pH 8, RT/0.5 hr (FAAAWPDDDF1): 100% | HPLC Assay Conv; 600 uM Peptide, 0.08 uM enzyme, RT/0.5 hr (FAAAYPDDDF1): 5% | HPLC Assay Conv; 600 uM Peptide, 0.8 uM enzyme, RT/0.5 hr (FAAAYPDDDF1): 50% | HPLC Assay Conv; 600 uM Peptide, 8 uM enzyme, RT/0.5 hr (FAAAYPDDDF1): 100% | HPLC Assay Conv; 200 uM Peptide, 8 uM enzyme, MOPS pH 5.0, RT/0.5 hr (FYPLPWPDDDY{LYSN3}NH2): 100% | HPLC Assay Conv; 200 uM Peptide, 8 uM enzyme, MOPS pH 5.0, RT/1 hr (FYPLPWPDDDY{LYSN3}NH2): 100% | HPLC Assay Conv; 600 uM Peptide, 0.8 uM enzyme, pH 5.5, RT/0.5 hr (FYPLPWPDDDY{LYSN3}NH2): 100% | HPLC Assay Conv; 600 uM Peptide, 0.8 uM enzyme, pH 6.5, RT/0.5 hr (FYPLPWPDDDY{LYSN3}NH2): 100% | HPLC Assay Conv; 600 uM Peptide, 0.8 uM enzyme, pH 7.5, RT/0.5 hr (FYPLPWPDDDY{LYSN3}NH2): 100% | HPLC Assay Conv; 600 uM Peptide, 0.8 uM enzyme, pH 8.5, RT/0.5 hr (FYPLPWPDDDY{LYSN3}NH2): 100% | HPLC Assay Conv; 1200 uM Peptide, 800 pM enzyme, pH 7.5, RT/0.5 hr (FYPLPWPDDDY{LYSN3}NH2): 2.70% | HPLC Assay Conv; 1200 uM Peptide, 800 pM enzyme, pH 8.5, RT/0.5 hr (FYPLPWPDDDY{LYSN3}NH2): 6.80% | HPLC Assay Conv; 1200 uM Peptide, 0.008 uM enzyme, pH 5.5, RT/0.5 hr (FYPLPWPDDDY{LYSN3}NH2): 1.40% | HPLC Assay Conv; 1200 uM Peptide, 0.008 uM enzyme, pH 6.5, RT/0.5 hr (FYPLPWPDDDY{LYSN3}NH2): 56% | HPLC Assay Conv; 1200 uM Peptide, 0.008 uM enzyme, pH 7.5, RT/0.5 hr (FYPLPWPDDDY{LYSN3}NH2): 100% | HPLC Assay Conv; 1200 uM Peptide, 0.008 uM enzyme, pH 8.5, RT/0.5 hr (FYPLPWPDDDY{LYSN3}NH2): 100% | HPLC Assay Conv; 1200 uM Peptide, 0.08 uM enzyme, pH 5.5, RT/0.5 hr (FYPLPWPDDDY{LYSN3}NH2): 50% | HPLC Assay Conv; 1200 uM Peptide, 0.08 uM enzyme, pH 6.5, RT/0.5 hr (FYPLPWPDDDY{LYSN3}NH2): 100% | HPLC Assay Conv; 1200 uM Peptide, 0.08 uM enzyme, pH 7.5, RT/0.5 hr (FYPLPWPDDDY{LYSN3}NH2): 100% | HPLC Assay Conv; 1200 uM Peptide, 0.08 uM enzyme, pH 8.5, RT/0.5 hr (FYPLPWPDDDY{LYSN3}NH2): 100% | HPLC Assay Conv; 300 uM Peptide, 8 uM enzyme, 50/50 MOPS Mg buffer/RB1, RT/0.5 hr (WAAAFPDDDF1): 30% | HPLC Assay Conv; 300 uM Peptide, 8 uM enzyme, RB2 + Mg, RT/0.5 hr (WAAAFPDDDF1): 5% | HPLC Assay Conv; 300 uM Peptide, 8 uM enzyme, RB4, RT/0.5 hr (WAAAFPDDDF1): 100% | HPLC Assay Conv; 300 uM Peptide, 8 uM enzyme, pH 8, 60 mM KOAc, RT/0.5 hr (WAAAFPDDDF1): 70% | HPLC Assay Conv; 300 uM Peptide, 8 uM enzyme, pH 8, 60 mM KOAc, RT/2 hr (WAAAFPDDDF1): 100% | HPLC Assay Conv; 300 uM Peptide, 8 uM enzyme, pH 8, 0.2% Tween20, RT/0.5 hr (WAAAFPDDDF1): 100% | HPLC Assay Conv; 300 uM Peptide, 8 uM enzyme, pH 8, RT/0.5 hr (WAAAFPDDDF1): 100% | HPLC Assay Conv; 600 uM Peptide, 8 uM enzyme, pH 8, RT/0.5 hr (WAAAFPDDDF1): 100%

B2: rat aminopeptidase N (protein)
chain: KPWNQYRLPKTLIPDSYQVTLRPYLTPNEQGLYIFKGSSTVRFTCNETTNVIIIHSKKLNYTNKGNHRVALRALGDTPAPNIDTTELVERTEYLVVHLQGSLVKGHQYEMDSEFQGELADDLAGFYRSEYMEGGNKKVVATTQMQAADARKSFPCFDEPAMKASFNITLIHPNNLTALSNMLPKDSRTLQEDPSWNVTEFHPTPKMSTYLLAYIVSEFKYVEAVSPNRVQIRIWARPSAIDEGHGDYALQVTGPILNFFAQHYNTAYPLEKSDQIALPDFNAGAMENWGLVTYRESALVFDPQSSSISNKERVVTVIAHELAHQWFGNLVTVDWWNDLWLNEGFASYVEFLGADYAEPTWNLKDLIVLNDVYRVMAVDALASSHPLSSPANEVNTPAQISELFDSITYSKGASVLRMLSSFLTEDLFKKGLSSYLHTFQYSNTIYLDLWEHLQQAVDSQTAIKLPASVSTIMDRWILQMGFPVITVNTSTGEIYQEHFLLDPTSKPTRPSDFNYLWIVPIPYLKNGKEDHYWLETEKNQSAEFQTSSNEWLLLNINVTGYYQVNYDENNWRKIQNQLQTDLSVIPVINRAQIIHDSFNLASAGKLSITLPLSNTLFLASETEYMPWEAALSSLNYFKLMFDRSEVYGPMKRYLKKQVTPLFAYFKIKTNNWLDRPPTLMEQYNEINAISTACSSGLEECRDLVVGLYSQWMNNSDNNPIHPNLRSTVYCNAIAFGGEEEWNFAWEQFRKATLVNEADKLRSALACSNEVWILNRYLSYTLNPDYIRKQDATSTIVSIANNVVGQTLVWDFVRSNWKKLFEDYGGGSFSFANLIQGVTRRFSSEFELQQLEQFKEDNSATGFGSGTRALEQALEKTKANIKWVKENKDVVLKWFTENS
Cleaved by Rat APN [1]: Yes | Cleaved by Rat APN [2]: No | Cleaved by Rat APN [3]: Yes | Cleaved by Rat APN [4]: No | Cleaved by Rat APN [5]: No | Cleaved by Rat APN [6]: Yes | Cleaved by Rat APN [7]: Yes
